Reference: patent US20150344570A1 (published 2015)

T1: FcγRIIb extracellular domain with C-terminal His tag (human, UniProt P31994 43-217)
T1 construct: extracellular domain; also called FcgRIIb; 2b; not shown: His tag at the C terminus
T1 sequence (looked up): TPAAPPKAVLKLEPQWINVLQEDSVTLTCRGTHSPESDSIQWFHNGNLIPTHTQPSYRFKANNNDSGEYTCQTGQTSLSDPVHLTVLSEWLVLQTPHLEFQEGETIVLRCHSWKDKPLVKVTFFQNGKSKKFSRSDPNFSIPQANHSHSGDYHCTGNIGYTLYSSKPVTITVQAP

T2: FcγRIIa R extracellular domain with C-terminal His tag (human, UniProt P12318 34-217)
T2 construct: extracellular domain; also called FcgRIIa R; 2aR; not shown: His tag at the C terminus
T2 sequence (looked up): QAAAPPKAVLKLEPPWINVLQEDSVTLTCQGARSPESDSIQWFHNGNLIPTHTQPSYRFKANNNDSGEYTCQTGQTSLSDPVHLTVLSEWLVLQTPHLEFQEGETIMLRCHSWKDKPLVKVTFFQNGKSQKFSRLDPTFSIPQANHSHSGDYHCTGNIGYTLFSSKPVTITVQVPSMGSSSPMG

B1: GpH7-A5/GpH7-B3 variant K334_13S/GpL16-k0 (antibody, human IgG1, kappa)
heavy 1: not shown
heavy 2: not shown
light: DIVMTQSPLSLPVTPGEPASISCQASESLVHSNRNTYLHWYLQKPGQSPQLLIYKVSNRFSGVPDRFSGSGSGTDFTLKISRVEAEDVGVYYCSQNTHVPPTFGQGTKVEIERTVAAPSVFIFPPSDEQLKSGTASVVCLLNNFYPREAKVQWKVDNALQSGNSQESVTEQDSKDSTYSLSSTLTLSKADYEKHKVYACEVTHQGLSSPVTKSFNRGEC
notes: also called He Ab K334_13S
B2: GpH7-A5/GpH7-B3 variant T335_07I/GpL16-k0 (antibody, human IgG1, kappa)
heavy 1: not shown
heavy 2: not shown
light: B1 light
notes: also called He Ab T335_07I
B3: GpH7-A5/GpH7-B3 variant P238_15Y/GpL16-k0 (antibody, human IgG1, kappa)
heavy 1: not shown
heavy 2: not shown
light: B1 light
notes: also called He Ab P238_15Y
B4: GpH7-A5/GpH7-B3 variant T335_10E/GpL16-k0 (antibody, human IgG1, kappa)
heavy 1: not shown
heavy 2: not shown
light: B1 light
notes: also called He Ab T335_10E
B5: GpH7-A5/GpH7-B3 variant L328_13S/GpL16-k0 (antibody, human IgG1, kappa)
heavy 1: not shown
heavy 2: not shown
light: B1 light
notes: also called He Ab L328_13S
B6: GpH7-A5/GpH7-B3 variant S267_19Q/GpL16-k0 (antibody, human IgG1, kappa)
heavy 1: not shown
heavy 2: not shown
light: B1 light
notes: also called He Ab S267_19Q
B7: GpH7-A5/GpH7-B3 variant Y296_20W/GpL16-k0 (antibody, human IgG1, kappa)
heavy 1: not shown
heavy 2: not shown
light: B1 light
notes: also called He Ab Y296_20W
B8: GpH7-A5/GpH7-B3 variant K334_10E/GpL16-k0 (antibody, human IgG1, kappa)
heavy 1: not shown
heavy 2: not shown
light: B1 light
notes: also called He Ab K334_10E
B9: GpH7-A5/GpH7-B3 variant S337_16H/GpL16-k0 (antibody, human IgG1, kappa)
heavy 1: not shown
heavy 2: not shown
light: B1 light
notes: also called He Ab S337_16H
B10: GpH7-A5/GpH7-B3 variant K334_08L/GpL16-k0 (antibody, human IgG1, kappa)
heavy 1: not shown
heavy 2: not shown
light: B1 light
notes: also called He Ab K334_08L
B11: GpH7-A5/GpH7-B3 variant P238_04F/GpL16-k0 (antibody, human IgG1, kappa)
heavy 1: not shown
heavy 2: not shown
light: B1 light
notes: also called He Ab P238_04F
B12: GpH7-A5/GpH7-B3 variant P331_20W/GpL16-k0 (antibody, human IgG1, kappa)
heavy 1: not shown
heavy 2: not shown
light: B1 light
notes: also called He Ab P331_20W
B13: GpH7-A5/GpH7-B3 variant S324_06M/GpL16-k0 (antibody, human IgG1, kappa)
heavy 1: not shown
heavy 2: not shown
light: B1 light
notes: also called He Ab S324_06M
B14: GpH7-A5/GpH7-B3 variant S239_10E/GpL16-k0 (antibody, human IgG1, kappa)
heavy 1: not shown
heavy 2: not shown
light: B1 light
notes: also called He Ab S239_10E
B15: GpH7-A5/GpH7-B3 variant K334_14T/GpL16-k0 (antibody, human IgG1, kappa)
heavy 1: not shown
heavy 2: not shown
light: B1 light
notes: also called He Ab K334_14T
B16: GpH7-A5/GpH7-B3 variant P238_09D/GpL16-k0 (antibody, human IgG1, kappa)
heavy 1: not shown
heavy 2: not shown
light: B1 light
notes: also called He Ab P238_09D
B17: GpH7-A5/GpH7-B3 variant L328_02A/GpL16-k0 (antibody, human IgG1, kappa)
heavy 1: not shown
heavy 2: not shown
light: B1 light
notes: also called He Ab L328_02A
B18: GpH7-A5/GpH7-B3 variant S267_06M/GpL16-k0 (antibody, human IgG1, kappa)
heavy 1: not shown
heavy 2: not shown
light: B1 light
notes: also called He Ab S267_06M
B19: GpH7-A5/GpH7-B3 variant P331_16H/GpL16-k0 (antibody, human IgG1, kappa)
heavy 1: not shown
heavy 2: not shown
light: B1 light
notes: also called He Ab P331_16H
B20: GpH7-A5/GpH7-B3 variant L235_20W/GpL16-k0 (antibody, human IgG1, kappa)
heavy 1: not shown
heavy 2: not shown
light: B1 light
notes: also called He Ab L235_20W
B21: GpH7-A5/GpH7-B3 variant S239_03V/GpL16-k0 (antibody, human IgG1, kappa)
heavy 1: not shown
heavy 2: not shown
light: B1 light
notes: also called He Ab S239_03V
B22: GpH7-A5/GpH7-B3 variant T335_15Y/GpL16-k0 (antibody, human IgG1, kappa)
heavy 1: not shown
heavy 2: not shown
light: B1 light
notes: also called He Ab T335_15Y
B23: GpH7-A5/GpH7-B3 variant V266_06M/GpL16-k0 (antibody, human IgG1, kappa)
heavy 1: not shown
heavy 2: not shown
light: B1 light
notes: also called He Ab V266_06M
B24: GpH7-A5/GpH7-B3 variant P331_15Y/GpL16-k0 (antibody, human IgG1, kappa)
heavy 1: not shown
heavy 2: not shown
light: B1 light
notes: also called He Ab P331_15Y
B25: GpH7-B3 variant S337_02A/GpL16-k0 (antibody, human IgG1, kappa)
heavy: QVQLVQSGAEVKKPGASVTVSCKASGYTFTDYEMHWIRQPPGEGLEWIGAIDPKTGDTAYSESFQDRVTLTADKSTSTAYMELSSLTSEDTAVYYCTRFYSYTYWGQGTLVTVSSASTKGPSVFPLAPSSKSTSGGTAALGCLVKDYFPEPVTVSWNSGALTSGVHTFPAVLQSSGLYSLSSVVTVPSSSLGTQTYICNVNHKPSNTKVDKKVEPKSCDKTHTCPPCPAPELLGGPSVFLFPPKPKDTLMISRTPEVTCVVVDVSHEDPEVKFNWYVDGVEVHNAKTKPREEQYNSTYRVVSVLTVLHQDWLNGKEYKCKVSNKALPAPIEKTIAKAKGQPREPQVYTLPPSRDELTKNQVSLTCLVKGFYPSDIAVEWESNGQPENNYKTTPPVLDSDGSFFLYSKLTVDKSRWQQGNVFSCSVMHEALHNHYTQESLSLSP
light: B1 light
notes: homodimerized: alteration in both H chains; also called Ho Ab S337_02A
B26: GpH7-B3 variant A327_10E/GpL16-k0 (antibody, human IgG1, kappa)
heavy: not shown
light: B1 light
notes: homodimerized: alteration in both H chains; also called Ho Ab A327_10E
B27: GpH7-B3 variant A330_12R/GpL16-k0 (antibody, human IgG1, kappa)
heavy: not shown
light: B1 light
notes: homodimerized: alteration in both H chains; also called Ho Ab A330_12R
B28: GpH7-B3 variant K326_20W/GpL16-k0 (antibody, human IgG1, kappa)
heavy: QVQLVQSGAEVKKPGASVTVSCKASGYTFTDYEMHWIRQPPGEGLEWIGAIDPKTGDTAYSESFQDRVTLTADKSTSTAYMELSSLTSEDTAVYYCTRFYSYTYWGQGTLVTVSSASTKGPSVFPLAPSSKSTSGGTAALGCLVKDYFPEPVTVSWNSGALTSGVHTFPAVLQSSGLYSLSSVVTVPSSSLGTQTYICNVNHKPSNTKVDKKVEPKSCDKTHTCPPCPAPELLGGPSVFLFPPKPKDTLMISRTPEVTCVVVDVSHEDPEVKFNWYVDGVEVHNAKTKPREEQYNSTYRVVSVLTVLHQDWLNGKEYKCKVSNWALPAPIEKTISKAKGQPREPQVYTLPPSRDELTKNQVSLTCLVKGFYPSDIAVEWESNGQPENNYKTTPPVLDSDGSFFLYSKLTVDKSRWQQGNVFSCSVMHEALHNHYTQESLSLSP
light: B1 light
notes: homodimerized: alteration in both H chains; also called Ho Ab K326_20W
B29: GpH7-B3 variant A327_09D/GpL16-k0 (antibody, human IgG1, kappa)
heavy: not shown
light: B1 light
notes: homodimerized: alteration in both H chains; also called Ho Ab A327_09D
B30: GpH7-B3 variant K334_05P/GpL16-k0 (antibody, human IgG1, kappa)
heavy: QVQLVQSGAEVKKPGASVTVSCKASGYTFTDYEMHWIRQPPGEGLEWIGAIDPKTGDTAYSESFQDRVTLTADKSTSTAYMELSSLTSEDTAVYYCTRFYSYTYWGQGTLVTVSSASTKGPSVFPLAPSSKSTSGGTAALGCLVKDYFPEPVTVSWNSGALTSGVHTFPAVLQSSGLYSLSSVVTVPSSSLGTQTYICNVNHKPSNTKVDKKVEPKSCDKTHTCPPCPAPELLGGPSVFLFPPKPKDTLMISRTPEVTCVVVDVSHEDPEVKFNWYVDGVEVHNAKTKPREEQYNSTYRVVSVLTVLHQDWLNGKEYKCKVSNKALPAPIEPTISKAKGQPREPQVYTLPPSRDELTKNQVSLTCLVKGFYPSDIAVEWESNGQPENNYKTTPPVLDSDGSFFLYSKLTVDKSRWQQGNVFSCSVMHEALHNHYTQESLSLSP
light: B1 light
notes: homodimerized: alteration in both H chains; also called Ho Ab K334_05P
B31: GpH7-B3 variant K326_04F/GpL16-k0 (antibody, human IgG1, kappa)
heavy: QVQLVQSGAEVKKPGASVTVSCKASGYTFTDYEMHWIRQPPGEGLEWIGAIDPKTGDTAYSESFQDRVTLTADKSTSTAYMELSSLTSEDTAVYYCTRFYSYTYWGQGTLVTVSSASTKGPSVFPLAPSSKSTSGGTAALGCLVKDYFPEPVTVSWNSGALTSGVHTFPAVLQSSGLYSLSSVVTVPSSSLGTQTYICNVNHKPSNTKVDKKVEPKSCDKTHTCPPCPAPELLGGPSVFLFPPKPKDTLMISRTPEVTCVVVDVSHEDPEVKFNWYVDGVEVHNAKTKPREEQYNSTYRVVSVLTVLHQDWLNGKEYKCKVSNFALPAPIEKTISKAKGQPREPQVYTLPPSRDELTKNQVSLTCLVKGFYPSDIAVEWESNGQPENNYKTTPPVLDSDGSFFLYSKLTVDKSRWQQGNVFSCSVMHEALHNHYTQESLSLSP
light: B1 light
notes: homodimerized: alteration in both H chains; also called Ho Ab K326_04F
B32: GpH7-B3 variant A330_01G/GpL16-k0 (antibody, human IgG1, kappa)
heavy: not shown
light: B1 light
notes: homodimerized: alteration in both H chains; also called Ho Ab A330_01G
B33: GpH7-B3 variant L235_20W/GpL16-k0 (antibody, human IgG1, kappa)
heavy: not shown
light: B1 light
notes: homodimerized: alteration in both H chains; also called Ho Ab L235_20W
B34: GpH7-B3 variant K334_13S/GpL16-k0 (antibody, human IgG1, kappa)
heavy: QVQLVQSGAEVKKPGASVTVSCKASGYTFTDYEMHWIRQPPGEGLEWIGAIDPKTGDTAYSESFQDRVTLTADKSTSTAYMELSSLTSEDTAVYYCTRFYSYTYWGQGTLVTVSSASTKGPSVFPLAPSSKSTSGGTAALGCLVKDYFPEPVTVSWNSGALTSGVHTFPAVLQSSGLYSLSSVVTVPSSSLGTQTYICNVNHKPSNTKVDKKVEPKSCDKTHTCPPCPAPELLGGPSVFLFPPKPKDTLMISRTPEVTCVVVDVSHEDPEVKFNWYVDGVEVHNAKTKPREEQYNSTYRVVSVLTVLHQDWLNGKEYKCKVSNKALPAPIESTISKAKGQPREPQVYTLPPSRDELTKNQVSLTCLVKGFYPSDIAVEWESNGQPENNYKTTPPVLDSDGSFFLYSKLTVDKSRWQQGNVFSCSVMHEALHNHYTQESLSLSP
light: B1 light
notes: homodimerized: alteration in both H chains; also called Ho Ab K334_13S
B35: GpH7-B3 variant K334_10E/GpL16-k0 (antibody, human IgG1, kappa)
heavy: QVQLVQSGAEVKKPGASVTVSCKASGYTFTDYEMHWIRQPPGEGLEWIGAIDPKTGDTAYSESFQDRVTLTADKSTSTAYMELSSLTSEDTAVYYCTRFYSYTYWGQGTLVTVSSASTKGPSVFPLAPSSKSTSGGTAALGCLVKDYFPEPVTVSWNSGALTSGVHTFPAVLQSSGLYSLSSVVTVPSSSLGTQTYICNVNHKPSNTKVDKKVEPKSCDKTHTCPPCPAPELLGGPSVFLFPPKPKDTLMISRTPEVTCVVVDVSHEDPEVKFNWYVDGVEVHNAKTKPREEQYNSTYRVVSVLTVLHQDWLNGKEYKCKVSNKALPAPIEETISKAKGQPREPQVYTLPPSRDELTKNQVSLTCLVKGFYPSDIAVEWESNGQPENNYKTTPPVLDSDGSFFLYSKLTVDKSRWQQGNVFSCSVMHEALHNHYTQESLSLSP
light: B1 light
notes: homodimerized: alteration in both H chains; also called Ho Ab K334_10E
B36: GpH7-B3 variant I336_08L/GpL16-k0 (antibody, human IgG1, kappa)
heavy: not shown
light: B1 light
notes: homodimerized: alteration in both H chains; also called Ho Ab I336_08L
B37: GpH7-B3 variant K334_19Q/GpL16-k0 (antibody, human IgG1, kappa)
heavy: not shown
light: B1 light
notes: homodimerized: alteration in both H chains; also called Ho Ab K334_19Q
B38: GpH7-B3 variant L328_13S/GpL16-k0 (antibody, human IgG1, kappa)
heavy: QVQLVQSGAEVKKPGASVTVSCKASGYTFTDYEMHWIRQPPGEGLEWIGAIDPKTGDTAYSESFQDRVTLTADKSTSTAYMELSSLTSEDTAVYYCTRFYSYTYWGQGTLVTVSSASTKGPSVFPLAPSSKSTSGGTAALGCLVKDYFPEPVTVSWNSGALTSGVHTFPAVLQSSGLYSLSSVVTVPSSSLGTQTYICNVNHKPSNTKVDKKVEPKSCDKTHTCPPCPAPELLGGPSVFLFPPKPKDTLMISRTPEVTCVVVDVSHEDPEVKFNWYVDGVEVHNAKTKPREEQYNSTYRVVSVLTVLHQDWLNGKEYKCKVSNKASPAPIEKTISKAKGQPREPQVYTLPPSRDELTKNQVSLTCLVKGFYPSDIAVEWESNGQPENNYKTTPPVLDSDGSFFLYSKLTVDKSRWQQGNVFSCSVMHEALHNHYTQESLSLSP
light: B1 light
notes: homodimerized: alteration in both H chains; also called Ho Ab L328_13S
B39: GpH7-B3 variant K334_04F/GpL16-k0 (antibody, human IgG1, kappa)
heavy: not shown
light: B1 light
notes: homodimerized: alteration in both H chains; also called Ho Ab K334_04F
B40: GpH7-B3 variant K326_03V/GpL16-k0 (antibody, human IgG1, kappa)
heavy: not shown
light: B1 light
notes: homodimerized: alteration in both H chains; also called Ho Ab K326_03V
B41: GpH7-B3 variant K326_08L/GpL16-k0 (antibody, human IgG1, kappa)
heavy: not shown
light: B1 light
notes: homodimerized: alteration in both H chains; also called Ho Ab K326_08L
B42: GpH7-B3 variant K326_15Y/GpL16-k0 (antibody, human IgG1, kappa)
heavy: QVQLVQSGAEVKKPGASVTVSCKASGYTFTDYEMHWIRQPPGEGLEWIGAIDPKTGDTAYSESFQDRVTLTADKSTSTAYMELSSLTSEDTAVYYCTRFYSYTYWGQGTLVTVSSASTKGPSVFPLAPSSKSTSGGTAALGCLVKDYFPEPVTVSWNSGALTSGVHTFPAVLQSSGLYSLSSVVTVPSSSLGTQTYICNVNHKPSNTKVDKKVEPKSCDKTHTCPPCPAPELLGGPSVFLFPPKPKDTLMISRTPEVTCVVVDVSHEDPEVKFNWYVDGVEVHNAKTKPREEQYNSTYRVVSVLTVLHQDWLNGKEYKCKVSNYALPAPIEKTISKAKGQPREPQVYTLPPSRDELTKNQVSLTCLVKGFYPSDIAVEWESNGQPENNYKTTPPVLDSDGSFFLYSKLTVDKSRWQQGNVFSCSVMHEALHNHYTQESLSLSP
light: B1 light
notes: homodimerized: alteration in both H chains; also called Ho Ab K326_15Y
B43: GpH7-B3 variant G237_20W/GpL16-k0 (antibody, human IgG1, kappa)
heavy: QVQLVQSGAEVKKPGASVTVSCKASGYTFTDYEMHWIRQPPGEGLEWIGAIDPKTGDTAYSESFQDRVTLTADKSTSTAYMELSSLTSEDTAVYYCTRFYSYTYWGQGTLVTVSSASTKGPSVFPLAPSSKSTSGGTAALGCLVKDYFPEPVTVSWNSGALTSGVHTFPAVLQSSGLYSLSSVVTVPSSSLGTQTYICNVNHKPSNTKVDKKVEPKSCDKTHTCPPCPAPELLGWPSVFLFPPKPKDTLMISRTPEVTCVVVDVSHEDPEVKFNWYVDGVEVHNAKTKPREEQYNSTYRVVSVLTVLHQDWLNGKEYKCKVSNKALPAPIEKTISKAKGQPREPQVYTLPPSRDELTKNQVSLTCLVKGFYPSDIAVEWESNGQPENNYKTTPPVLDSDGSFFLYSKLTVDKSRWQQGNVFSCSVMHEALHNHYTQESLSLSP
light: B1 light
notes: homodimerized: alteration in both H chains; also called Ho Ab G237_20W
B44: GpH7-B3 variant K326_07I/GpL16-k0 (antibody, human IgG1, kappa)
heavy: not shown
light: B1 light
notes: homodimerized: alteration in both H chains; also called Ho Ab K326_07I
B45: GpH7-B3 variant G237_04F/GpL16-k0 (antibody, human IgG1, kappa)
heavy: not shown
light: B1 light
notes: homodimerized: alteration in both H chains; also called Ho Ab G237_04F
B46: GpH7-B3 variant I332_06M/GpL16-k0 (antibody, human IgG1, kappa)
heavy: not shown
light: B1 light
notes: homodimerized: alteration in both H chains; also called Ho Ab I332_06M
B47: GpH7-B3 variant K334_02A/GpL16-k0 (antibody, human IgG1, kappa)
heavy: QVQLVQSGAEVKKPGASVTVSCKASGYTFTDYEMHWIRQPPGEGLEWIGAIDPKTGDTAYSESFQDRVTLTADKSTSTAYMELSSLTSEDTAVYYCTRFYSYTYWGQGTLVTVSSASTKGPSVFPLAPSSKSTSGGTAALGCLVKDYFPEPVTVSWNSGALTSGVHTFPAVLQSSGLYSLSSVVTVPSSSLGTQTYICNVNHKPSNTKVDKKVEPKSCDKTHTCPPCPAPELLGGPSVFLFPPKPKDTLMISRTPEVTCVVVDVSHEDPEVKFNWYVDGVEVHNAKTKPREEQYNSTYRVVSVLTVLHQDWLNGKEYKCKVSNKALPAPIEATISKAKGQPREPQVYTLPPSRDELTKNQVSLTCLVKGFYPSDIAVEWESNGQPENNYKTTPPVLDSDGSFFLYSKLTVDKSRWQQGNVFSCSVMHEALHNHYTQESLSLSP
light: B1 light
notes: homodimerized: alteration in both H chains; also called Ho Ab K334_02A
B48: GpH7-B3 variant H268_01G/GpL16-k0 (antibody, human IgG1, kappa)
heavy: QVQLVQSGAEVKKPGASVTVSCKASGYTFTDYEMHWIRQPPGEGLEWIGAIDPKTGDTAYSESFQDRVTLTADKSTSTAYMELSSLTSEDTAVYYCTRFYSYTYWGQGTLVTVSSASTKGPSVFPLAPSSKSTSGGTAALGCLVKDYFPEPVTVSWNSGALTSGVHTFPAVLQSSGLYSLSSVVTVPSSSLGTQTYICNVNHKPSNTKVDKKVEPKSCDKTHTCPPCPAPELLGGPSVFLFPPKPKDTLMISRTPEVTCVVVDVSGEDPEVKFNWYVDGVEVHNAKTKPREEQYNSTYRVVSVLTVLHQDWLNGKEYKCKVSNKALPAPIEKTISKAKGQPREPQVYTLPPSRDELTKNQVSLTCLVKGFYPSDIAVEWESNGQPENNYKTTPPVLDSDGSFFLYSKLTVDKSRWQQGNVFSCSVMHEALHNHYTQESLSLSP
light: B1 light
notes: homodimerized: alteration in both H chains; also called Ho Ab H268_01G
B49: GpH7-B3 variant K334_08L/GpL16-k0 (antibody, human IgG1, kappa)
heavy: not shown
light: B1 light
notes: homodimerized: alteration in both H chains; also called Ho Ab K334_08L

molecular target: T1, FcγRIIb extracellular domain with …; experiment: SPR, relative binding, HeCon Ab = 100
Description: (§1) Analysis of interaction between objective antibody and the FcγR was carried out using Biacore T100 (GE Healthcare). HBS-EP+ (GE Healthcare) was used as the running buffer, and the measurement temperature was set to 25° C. Chips produced by immobilizing the antigen peptide by the amine coupling method to a Series S Sencor Chip CM5 (GE Healthcare), or alternatively, chips produced by allowing preliminarily biotinylated antigen peptides to interact with and immobilize onto a Series S Sensor Chip SA (certified) (GE Healthcare) were used. Antibodies of interest were captured onto an antigen peptide-immobilized chip, and allowed to interact to each FcγR diluted with running buffer. To regenerate and repeatedly use the chip, the antibodies captured on the chip were washed off by reacting 10 mM glycine-HCl, pH 1.5.

Binder	He/Con_2b
B1	111 % of control
B2	106 % of control
B3	218 % of control
B4	108 % of control
B5	149 % of control
B6	218 % of control
B7	103 % of control
B8	114 % of control
B9	105 % of control
B10	106 % of control
B11	312 % of control
B12	111 % of control
B13	112 % of control
B14	181 % of control
B15	115 % of control
B16	221 % of control
B17	144 % of control
B18	210 % of control
B19	116 % of control
B20	147 % of control
B21	108 % of control
B22	108 % of control
B23	251 % of control
B24	114 % of control

molecular target: T2, FcγRIIa R extracellular domain with …; experiment: SPR (Biacore), relative FcγRIIa R binding, GpH7-B3/GpL16-k0 = 100
Description: as §1

Binder	Ho/Con_2aR
B25	102 % of control
B26	104 % of control
B27	101 % of control
B28	120 % of control
B29	120 % of control
B30	102 % of control
B31	133 % of control
B32	106 % of control
B33	114 % of control
B34	106 % of control
B35	106 % of control
B36	105 % of control
B37	108 % of control
B38	108 % of control
B39	110 % of control
B40	139 % of control
B41	131 % of control
B42	134 % of control
B43	107 % of control
B44	133 % of control
B45	113 % of control
B46	105 % of control
B47	100 % of control
B48	122 % of control
B49	105 % of control
